The labels stand for the following.
B1: Dcr-2(D1217N/D1476N), catalytically inactive mutant (enzyme, Drosophila melanogaster, UniProt A1ZAW0 1-1722, looked up)
chain: MEDVEIKPRGYQLRLVDHLTKSNGIVYLPTGSGKTFVAILVLKRFSQDFDKPIESGGKRALFMCNTVELARQQAMAVRRCTNFKVGFYVGEQGVDDWTRGMWSDEIKKNQVLVGTAQVFLDMVTQTYVALSSLSVVIIDECHHGTGHHPFREFMRLFTIANQTKLPRVVGLTGVLIKGNEITNVATKLKELEITYRGNIITVSDTKEMENVMLYATKPTEVMVSFPHQEQVLTVTRLISAEIEKFYVSLDLMNIGVQPIRRSKSLQCLRDPSKKSFVKQLFNDFLYQMKEYGIYAASIAIISLIVEFDIKRRQAETLSVKLMHRTALTLCEKIRHLLVQKLQDMTYDDDDDNVNTEEVIMNFSTPKVQRFLMSLKVSFADKDPKDICCLVFVERRYTCKCIYGLLLNYIQSTPELRNVLTPQFMVGRNNISPDFESVLERKWQKSAIQQFRDGNANLMICSSVLEEGIDVQACNHVFILDPVKTFNMYVQSKGRARTTEAKFVLFTADKEREKTIQQIYQYRKAHNDIAEYLKDRVLEKTEPELYEIKGHFQDDIDPFTNENGAVLLPNNALAILHRYCQTIPTDAFGFVIPWFHVLQEDERDRIFGVSAKGKHVISINMPVNCMLRDTIYSDPMDNVKTAKISAAFKACKVLYSLGELNERFVPKTLKERVASIADVHFEHWNKYGDSVTATVNKADKSKDRTYKTECPLEFYDALPRVGEICYAYEIFLEPQFESCEYTEHMYLNLQTPRNYAILLRNKLPRLAEMPLFSNQGKLHVRVANAPLEVIIQNSEQLELLHQFHGMVFRDILKIWHPFFVLDRRSKENSYLVVPLILGAGEQKCFDWELMTNFRRLPQSHGSNVQQREQQPAPRPEDFEGKIVTQWYANYDKPMLVTKVHRELTPLSYMEKNQQDKTYYEFTMSKYGNRIGDVVHKDKFMIEVRDLTEQLTFYVHNRGKFNAKSKAKMKVILIPELCFNFNFPGDLWLKLIFLPSILNRMYFLLHAEALRKRFNTYLNLHLLPFNGTDYMPRPLEIDYSLKRNVDPLGNVIPTEDIEEPKSLLEPMPTKSIEASVANLEITEFENPWQKYMEPVDLSRNLLSTYPVELDYYYHFSVGNVCEMNEMDFEDKEYWAKNQFHMPTGNIYGNRTPAKTNANVPALMPSKPTVRGKVKPLLILQKTVSKEHITPAEQGEFLAAITASSAADVFDMERLEILGNSFLKLSATLYLASKYSDWNEGTLTEVKSKLVSNRNLLFCLIDADIPKTLNTIQFTPRYTWLPPGISLPHNVLALWRENPEFAKIIGPHNLRDLALGDEESLVKGNCSDINYNRFVEGCRANGQSFYAGADFSSEVNFCVGLVTIPNKVIADTLEALLGVIVKNYGLQHAFKMLEYFKICRADIDKPLTQLLNLELGGKKMRANVNTTEIDGFLINHYYLEKNLGYTFKDRRYLLQALTHPSYPTNRITGSYQELEFIGNAILDFLISAYIFENNTKMNPGALTDLRSALVNNTTLACICVRHRLHFFILAENAKLSEIISKFVNFQESQGHRVTNYVRILLEEADVQPTPLDLDDELDMTELPHANKCISQEAEKGVPPKGEFNMSTNVDVPKALGDVLEALIAAVYLDCRDLQRTWEVIFNLFEPELQEFTRKVPINHIRQLVEHKHAKPVFSSPIVEGETVMVSCQFTCMEKTIKVYGFGSNKDQAKLSAAKHALQQLSKCDA
notes: Dicer-2 (Dcr-2), Drosophila melanogaster, UniProt A1ZAW0, full length with D1217N and D1476N; also called Dcr-2(DDNN); Dcr-2^DDNN; source: sf9 cells (Bac-to-Bac baculovirus), purified (Ni-NTA, Hitrap Q, 2nd Ni-NTA, SEC)

Data set [1] deals with the molecule itself. In words: cryo-EM structure; Dcr-2^DDNN–Loqs-PD with 50 bp dsRNA, without ATP: initial dsRNA-binding state (dimer), 3.1 Å.
Data set [2] deals with T1, Drosophila melanogaster Dicer-2 (Dcr-2), wild type (Drosophila melanogaster, UniProt A1ZAW0 1-1722).
T1 construct: Dicer-2 (Dcr-2), Drosophila melanogaster, UniProt A1ZAW0, full length; The pull-down methods call it 'untagged Dcr-2'; also called WT Dcr-2; Dcr-2^WT; source: sf9 cells (Bac-to-Bac baculovirus), purified (Ni-NTA, Hitrap Q, 2nd Ni-NTA, SEC)
The data set is described as follows: pull-down; 1.25 μM His-tagged Loqs-PD and 0.6 μM untagged Dcr-2 mixed on ice for 30 min, then Ni-NTA agarose; 200 mM NaCl, 20 mM Tris pH 8.0, 5% glycerol, 20 mM imidazole, 4 °C, 1 h; SDS–PAGE. Conditions: both partners purified.

Data set [3] concerns the target B1. In words: cryo-EM structure; Dcr-2^DDNN–Loqs-PD with 50 bp dsRNA, without ATP: initial dsRNA-binding state (dimer), 3.1 Å. Conditions: both partners purified.
Data set [4] deals with T1, Drosophila melanogaster Dicer-2 …. The data set is described as follows: cryo-EM structure; Dcr-2^DDNN–Loqs-PD in the apo state (no dsRNA, no ATP); Dcr-2^DDNN–Loqs-PD with 50 bp dsRNA, ATP and Mg2+ (early-translocation, mid-translocation and active dicing states); WT Dcr-2–Loqs-PD with 50 bp dsRNA, ATP and Mg2+ (post-dicing state). The following applies: both partners purified.

A further data set has as its target Dcr-2 WT;Loqs-PD (Drosophila melanogaster;Drosophila …, UniProt A1ZAW0;Q9VJY9-4 1-1722;1-359, |). The data set is described as follows: cryo-EM; ATP, Mg2+; post-dicing state, RNA cleaved 21 bp from terminus, 4.6 A; Cryo-EM and EMSA buffers not given in the material; with or without ATP and Mg2+. The following applies: protein: recombinant;recombinant; tags: Ni-NTA purified;6xHis-SUMO removed by ULP1; copies: 1;1; 3' overhang 2 nt (UU) at both ends; 50 bp; self-complementary, 2 copies of one strand. Background: In EMSA bound probe runs differently from free probe, usually more slowly.

A further data set deals with Dcr-2 DDNN;Loqs-PD (Drosophila melanogaster;Drosophila …, UniProt A1ZAW0;Q9VJY9-4 1-1722;1-359, D1217N;D1476N|). In words: cryo-EM; no ATP; initial binding state, dimer, 3.1 A; Cryo-EM and EMSA buffers not given in the material; with or without ATP and Mg2+. Conditions: protein: recombinant;recombinant; tags: Ni-NTA purified;6xHis-SUMO removed by ULP1; copies: 1;1; 3' overhang 2 nt (UU) at both ends; 50 bp; self-complementary, 2 copies of one strand.

Data set [5] addresses Dcr-2 delta-dsRBD;Loqs-PD (Drosophila melanogaster;Drosophila …, UniProt A1ZAW0;Q9VJY9-4 1-1628;1-359, |). The data set is described as follows: cryo-EM; ATP, Mg2+; no further dsRNA bending; Cryo-EM and EMSA buffers not given in the material; with or without ATP and Mg2+. Conditions: protein: recombinant;recombinant; tags: Ni-NTA purified;6xHis-SUMO removed by ULP1; copies: 1;1; 3' overhang 2 nt (UU) at both ends; 50 bp; self-complementary, 2 copies of one strand.

Broadly, the stoichiometry N is the number of molecules, sites or subunits per partner or assembly.

For B1, in data set [1], the “stoichiometry N” value worked out at 2.

B2: His-tagged Loqs-PD, wild type (natural protein, Drosophila melanogaster, UniProt Q9VJY9-4 1-359, looked up)
chain: MDQENFHGSSLPQQLQNLHIQPQQASPNPVQTGFAPRRHYNNLVGLGNGNAVSGSPVKGAPLGQRHVKLKKEKISAQVAQLSQPGQLQLSDVGDPALAGGSGLQGGVGLMGVILPSDEALKFVSETDANGLAMKTPVSILQELLSRRGITPGYELVQIEGAIHEPTFRFRVSFKDKDTPFTAMGAGRSKKEAKHAAARALIDKLIGAQLPESPSSSAGPSVTGLTVAGSGGDGNANATGGGDASDKTVGNPIGWLQEMCMQRRWPPPSYETETEVGLPHERLFTIACSILNYREMGKGKSKKIAKRLAAHRMWMRLQETPIDSGKISDSICGELEGEVSIIQDIDRYEQVSKDFEFIKI
notes: Loquacious-PD (Loqs-PD), Drosophila melanogaster, UniProt M9MRT5, full length; The only construct described is in a modified pET28a with a 6×His-SUMO tag; also called WT; source: E. coli BL21 (DE3), purified
As for B2, the binding result in data set [2] was “binds”.

B3: Drosophila melanogaster Loquacious-PD (Loqs-PD), full length, tag removed (natural protein, UniProt Q9VJY9-4 1-359, looked up)
chain: MDQENFHGSSLPQQLQNLHIQPQQASPNPVQTGFAPRRHYNNLVGLGNGNAVSGSPVKGAPLGQRHVKLKKEKISAQVAQLSQPGQLQLSDVGDPALAGGSGLQGGVGLMGVILPSDEALKFVSETDANGLAMKTPVSILQELLSRRGITPGYELVQIEGAIHEPTFRFRVSFKDKDTPFTAMGAGRSKKEAKHAAARALIDKLIGAQLPESPSSSAGPSVTGLTVAGSGGDGNANATGGGDASDKTVGNPIGWLQEMCMQRRWPPPSYETETEVGLPHERLFTIACSILNYREMGKGKSKKIAKRLAAHRMWMRLQETPIDSGKISDSICGELEGEVSIIQDIDRYEQVSKDFEFIKI
notes: Loquacious-PD (Loqs-PD), Drosophila melanogaster, UniProt M9MRT5, full length (C-terminal residue Ile359); also called DmLoqs-PD; Loqs-PD^FL; source: E. coli BL21 (DE3), purified (Ni-NTA, ULP1 cleavage, 2nd Ni-NTA, SEC)
B3: the binding result in data set [3] and in data set [4] was “binds” each time.

B4: 50 bp palindromic dsRNA (dsRNA)
RNA 1: GAGACUUGGGCAAUGUGACUGCUGAUCAGCAGUCACAUUGCCCAAGUCUCUU
RNA 2: GAGACUUGGGCAAUGUGACUGCUGAUCAGCAGUCACAUUGCCCAAGUCUCUU
modifications: 5'-monophosphate on both strands
Take B4: the binding result (in the data set with Dcr-2 WT;Loqs-PD; with Dcr-2 DDNN;Loqs-PD; in data set [5]) was “binds” in each case.

These data come from paper PMC9279154 (Nature, 2022).
